Experiment: soluble fraction after stress (log2 fold change); higher = more stays soluble; pooled small domains, quantitative proteomics
Conditions: stress: pH 4
Summary of the method: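 Values are log2 fold changes, and higher ones mean more of the domain stayed soluble. Each fold change reflects the soluble amount of a domain after acid stress and is taken as a measure of aggregation propensity. The stress was pH 4, applied to pooled custom libraries of small protein domains analysed by high-throughput quantitative proteomics.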

Row | Sequence | soluble fraction (log2)
1 | HMPTMVAQINEIVQAKLPGSGLKDYTIRLVESQRDGVVVWVNGTRYLGVDEVAEPQVQALLKEAVAEWERS | -0.942
2 | HMPTQGELAILRVLWEQGPSTVRAVWEKLNSQSGTGYTTALKLMQIMAQKGLVSRDESQKTHVYRA | -0.511
3 | HMPTTRPEAEAHYETHQRYHDLQIDVEGREAFKVATGSLTLVQEFDEKDDYDLSIPTPRSPAILLTT | -0.208
4 | HMPVFYVTGNRVNFRAGPSTGDRVIGSLSQGAAVEVLGPTDDAWINIRDSDGRVGYMSAQFLSQ | -0.213
5 | HMPVLDETVPAALDGERIDRVVALLADVSRNRAGIAIAAGSVRLDGAVVTQRSRKVRADEELVVDGLER | -0.00165
6 | HMPVNEEFKRLIDKIKYEFSINQAQISERLGVKSTYLSDMINGRVPYNESMQKKIHEVFHIG | 0.114
7 | HMPVNGEFIERIKVMVLENKAKGKKERLTKTRMHQLLQEEGYKGSYSAFTHQVRIIEEELGVNQKEAH | 0.235
8 | HMPVSRMRARHEALARGVMGIHAGGFSAVYGYRKVWHGLIGKGWDPGEVGRDQVMNIMRGLGMQGVRR | 0.22
9 | HMPVSVAEQKQILAEALQERGHATFRELIENADNRMIVVGRFLALLELYRDGTVRFEQERALGELTIHWEE | -1.22
10 | HMPYIVNHIHLKSEDPKITADWFVKAFNFEIVSDVVRHFGDRFIVTKAEGGMTINISGVRDGEEL | 0.262
11 | HMPYNNLADAPASWKKLDDTPLTLGQVNWIAKIYDALVAKGMEKGAAAGTAISRFKKSFKVADGKWVQV | 0.173
12 | HMPYNRRYLISNADGALYTVEENGLVKLEETNLTAELFETRGMQDIPDGKLLITLHDPTILYWHDSENLFP | -2.32
13 | HMPYSPTPGSAPARLIAHLQEHGDSVNRTAIAELLQVDRKNVHNYLARAVTHGLLLRHGGGAYSLP | 0.207
14 | HMQADEENPKYPVITDGVIQLEVLESIDKTEEWLVERLAKDGYNNVSEIFIAEYENGNLSIVT | -0.742
15 | HMQADPYTVLGVLRDVTDGELKREYRKLVREHHPDALIAQGVPQEFVDIANNKLAVINAAYERIAKQRGL | -0.293
16 | HMQAGILTDTAAKNARIKKIDTERLEAELDQKRIVIVTGFQGVDRNQNITTLGRGGSDTSAVALAAAVSIT | 0.0198
17 | HMQAKDVEIPNFVGKTLAEANADNKDNFNFVVESKYDASKELGVILEQEPAADSKLVKSGSQITLKV | 0.0557
18 | HMQALDNNDALEEIIKKVITENPSQVTEFRNGKDSLMNFLVGKVMAASGGKANPKTLPETIEKIIK | 0.277
19 | HMQAMDYEGFKKEILKMSDIDLSLYKEKQMKRRIDSLIRKNGYEHYEDYVQALKQDSGLYNEFINYLTI | -1.33

Row | Sequence | soluble fraction (log2)
20 | HMQANLPFSELLADVDRGLISDVTIKGDQVSGHYTDGRTFNTFIPPEADLVRRLTEKNVRIAAVPD | -0.00341
21 | HMQAPAFDYSKVQEGVTVNHKIFGDGTVSWIDKARKYIRVQFSVGEKMFTMETAFVQGFLSL | -1.03
22 | HMQAPVDPIVLGKMGSSYGIRGWLRVFSSTEDAESIFDYQPWFIQKAGQWQQVQLESWKHHNQDMIIKLN | 0.179
23 | HMQARLPFSFAKRHGVILLAATGEGQSDVIYKSGFDIGALAEVRRFVAGEIALKEVDGPSFDRQLTLTYQN | -1.34
24 | HMQARSQQTIQTLFKAAAQILDKEGEAGLSTNKVAAAAGFSIGTLYQYFPSKEVLIQAMAAR | 0.0662
25 | HMQASISVDEAKSIALNYAKFTADQVVYTKSELDYDDGRAEYEIEFYAGGKEYSFTIDAVSGTVLEMEI | 0.107
26 | HMQATDEEIENFTSSAITAYKLTKEEGYIISMRDMKPIMEIVKTEYPMANGKVVSKVMNNYING | 0.22
27 | HMQDELSSSVIEEAVVVLLLRAANIDGKKDEQEIEAIKRLIIQQFNYDEEKADILITSASEK | -0.191
28 | HMQDGTILPGQKTAIRSLATSGGYDSQDLDTYLATTYGKSIDGLTRTEGADVIKAFQAGTVAK | 0.165
29 | HMQDLEIKINLGMTYYEVREAIGSPDIIDKINQYGRDFQMWTYYIDDKTKRYYFEDHLLTKI | -1.65
30 | HMQDLPPIHLSRGMTDYTLVRSRRRTLSMELKRDGTVVVHAPLRLGVEKIDAFVAAHEAWLARARTRQAER | 0.196
31 | HMQDNPELVARIEKAAARGTSSMSDWERSFMGSLLDSAKKWGRLTAKQHEVFQRIEKKTDPAHQAAVS | 0.0292
32 | HMQDPRITRTRGLILQAFDALLVEKGFHALSVQAIAGRAGINRATFYAHFADKYALLDTSIQE | 0.081
33 | HMQDREKNIAEGRDIIEHEFMRLGISLSRYDLDGLASKLNVKAGDDVLAGVGAGDIRVSQIISQLG | -0.747
34 | HMQDTVKNVFGAFTIFTDKPFAIGDTINVNGLEGTVVDVGMRSTQILGYDRRITSYPNYKITDSSIVNISS | -0.636
35 | HMQDVVFTVDKDQTGAEIGDMLYEKGIISSPTTFRLALRLTGSMDKLQQGYYQIPQNASLRQVIALLQKG | -0.522
36 | HMQDYYTQSDFARYLEDKGIHFPQNKIAVYRKRGKFPKEDLVVAGTPYWSKYTVESFAKHLLEQQN | 0.302
37 | HMQEAATSLNAKILAKLRENNGTLAVSDKSDPALISSLFGVSKGNFKKAIGALYKNGQIVIHADRIEL | 0.00478
38 | HMQEDQKTSIFDIEGVEKGVASVLSSIKVEIVSDLLEADMDDILKSGKISEDDLDGVYEAVQNFVER | -1.28
